Results from patent US20230295305A1.

Biological target: biotinylated pHLA: HLA subtype A*02:01 complexed with … (HLA-PEPTIDE target G8) (human)
Assay: MSD U-PLEX, periplasmic extract on biotinylated pHLA; ratio of target signal to OTLA signal

Negative control (MSD screen)
Average Target/OTLA: 1
Target/OTLA 61: 1
Target/OTLA 67: 2
Target/OTLA 246: 1
Target/OTLA 250: 1
